Results: US20240084286A1, “METHODS AND COMPOSITIONS FOR INCREASING THE CONCENTRATION OF CELL FREE DNA” (The Broad Institute, Inc., priority 2021, published 2024)
Entries after “also recorded” stand apart in the source; their conditions may differ.

Tests used:
[1] = test system: DNase I; assay: Fluorophore-quencher dsDNA nuclease protection fluorescence assay; format: biochemical
Excerpt: FIGS. 8A-8B present the protection of dsDNA from nuclease digestion by various dsDNA binders. FIG. 8A presents a fluorescence assay measuring nuclease activity in digestion of dsDNA, which is diminished in presence of dsDNA binders.
FIGS. 28A-28E: FIG. 28A presents an experimental workflow for testing the effect of a DNA binding agent on clearance and degradation of cfDNA. A DNA-binding monoclonal antibody (mAb) is combined with recombinant nucleosome core particles (NCPs) consisting of a human histone octamer complexed with 20 ng of the Widom601 double-stranded DNA (dsDNA) oligonucleotide. […] Levels of Widom601 were quantified via Taqman qPCR. […]
The ability of DBP's—both known proteins and novel ones generated above—to protect dsDNA from nuclease digestion using a previously-established plate-based fluorescence assay was evaluated Known DBP's that can be tested included anti-dsDNA antibodies (some commercially available, e.g. Abcam ab27156),^20,21 members of the protamine family of DBP's, 22 and a family of small DNA-binding archaeal proteins including Sso7d.^23-25 A commercially available dsDNA probe conjugated to a HEX fluorophore and a quencher was incubated with recombinant DNase 1 and DNase 1L3 (the predominant nucleases in circulation). […]

[2] = test system: DNase; assay: Nuclease digestion time-series / electropherogram of dsDNA; format: biochemical; details: dsDNA oligonucleotide

protection of dsDNA, digestion time-series [2]	Molecule	protection of dsDNA from nuclease digestion [1]
–	protamine sulfate [reference compound]	protect it from digestion by nucleases
dsDNA protection	Sso7d: Small archaeal histone-like DNA-binding protein from Sulfolobus solfataricus, SEQ ID NO: 3 (protein, listed as Saccharolobus solfataricus) MATVKFKYKGEEKEVDISKIKKVWRVGKMISFTYDEGGGKTGRGAVSEKDAPKELLQMLEKQKK	protect it from digestion by nucleases; also recorded: protect dsDNA from DNase I digestion
